Results on one sequence are retold here after publication PMC10968536.

For data set [1], the system named is HalTzlTCCCAG (synthetic (no organism)). Description: fluorescence anisotropy. The following applies: Fluorescence anisotropy: 100 nM FAM-TAR in TB buffer, 25 °C, 20 min, ex 480/em 518 nm, one-site fit; CD: 5 µM TAR with 50 µM nucleopeptide (Methods; abstract …).
Data set [2] concerns HalTzlAGA (synthetic (no organism)). Description: fluorescence anisotropy. To be noted: Fluorescence anisotropy: 100 nM FAM-TAR in TB buffer, 25 °C, 20 min, ex 480/em 518 nm, one-site fit; CD: 5 µM TAR with 50 µM nucleopeptide (Methods; abstract …).

“CCAGAUCUGAGCCUGGGAGCUCUCUGG [5'-FAM(6)-TAR UCU]”: the Kd was 38.3 µM in data set [1] and 256 µM in data set [2].
